B1: Azoarcus group I ribozyme (parent)
chain: GUGCCUUGCGCCGGGAAACCACGCAAGGGAUGGUGUCAAAUUCGGCGAAACCUAAGCGCCCGCCCGGGCGUAUGGCAACGCCGAGCCAAGCUUCGGCGCCUGCGCCGAUGAAGGUGUAGAGACUAGACGGCACCCACCUAAGGCAAACGCUAUGGUGAAGGCAUAGUCCAGGGAGUGGCGAAAGUCACACAAACCGG

Variants of B1 are the subject of the series. Description: reverse-splicing fitness (ratio to wild type); higher = more active; in vitro selection; Mg2+ level not given. A digest of the protocol:
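An in vitro group I ribozyme library with randomized positions was T7-transcribed and gel-purified. In triplicate, 10 pmol RNA in EPPS pH 7.5 was reacted with 50 pmoles of a 30-nt RNA substrate for 1 h at 37 °C across several added MgCl2 levels (1–48 mM), then stopped with EDTA. Products were reverse transcribed from a substrate-complementary primer, PCR-amplified and sequenced (HiSeq 4000). Fitness is a variant's read proportion after selection over that before, normalised to wild type.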
C82U A111C A120C A145C C150G: the reverse-splicing fitness came to 0.00813.
With C82U A111C A120C A145C C150A the figure was 0.0072; with C82G C150U C169G U176G, 0.00501; with C82G C150U C169G U176C, 0.0199.
Under C82G C150U C169G U176A stands 0.0154; under C82G A120U C169U U176C, 0.00518.
With C82G A120U C169U U176A the figure was 0.00406.
As for C82G A120U C169U U176G, the reverse-splicing fitness came out at 0.00154.
Under C82G A145C U176A stands 0.378.
Under C82G A145C U176G stands 0.153; under C82G A145C U176C, 0.35.
Under C82G C150A C169A U176C stands 0.0158; under C82G C150A C169A U176A, 0.0213.
Turning to C82G C150A C169A U176G, the reverse-splicing fitness stood at 0.00584.
Consider C82G A145G C150G C169G U176G, for which the reverse-splicing fitness worked out at 0.00613.
With C82G A145G C150G C169G U176C the figure was 0.0146; with C82G A145G C150G C169G U176A, 0.0113.
With C82G A145C C150A, the reverse-splicing fitness worked out at 0.0227.
With C82G A145C C150U the figure was 0.0965; with C82G A145C C150G, 0.0512; with C82G A145C C150G C169A, 0.00875.
With C82G A145C C150G C169G the figure was 0.00714; with C82G A145C C150G C169U, 0.01; with C82G A145C C150A C169G U176G, 0.00624.
With C82G A145C C150A C169G U176A the figure was 0.0223; with C82G A145C C150A C169G U176C, 0.0105.
With C82U A111C, the reverse-splicing fitness came out at 0.251.
With C82U A111C A120C A145G C150A C169A U176A the figure was 0.0163; with C82U A111C A120C A145C C150A C169A U176C, 0.00754.
In the case of C82U A111C A120C A145C C150A C169A U176A, the reverse-splicing fitness was 0.0113.
With C82U A111C A120C A145C C150A C169A U176G the figure was 0.00679; with C82G A145U C150U C169G, 0.0103.
For the variant C82G A145U C150U C169A, the reverse-splicing fitness came to 0.00964.
With C82G A145U C150U C169U the figure was 0.0123.
With C82G A145G U176A the figure was 0.341.
As to C82G A145G U176C, the reverse-splicing fitness was 0.374.
Under C82G A145G U176G stands 0.133.
With C82G A145C C150U C169A the figure was 0.00797; with C82G A145C C150U C169G, 0.00731.
With C82G A145C C150U C169U the figure was 0.00975.
On to C82U A111C A120C A145C C150G U176A, for which the reverse-splicing fitness was 0.00512.
Take C82U A111C A120C A145C C150G U176G: the reverse-splicing fitness was 0.00262.
For C82U A111C A120C A145C C150G U176C, the reverse-splicing fitness stood at 0.00717.
With C82G A145C C150U U176C, the reverse-splicing fitness was 0.0809.
Under C82G A145C C150U U176A stands 0.0881; under C82G A145C C150U U176G, 0.0373.
With C82G A145U C169G U176G the figure was 0.00439.
Under C82G A145U C169G U176A stands 0.00948; under C82G A145U C169G U176C, 0.0115; under C82U A111C A120C A145C C169A U176A, 0.0111.
With C82U A111C A120C A145C C169A U176C, the reverse-splicing fitness was determined as 0.00743.
With C82U A111C A120C A145C C169A U176G the figure was 0.00387.
Take C82U A111C A120C A145C C150U C169G U176G: the reverse-splicing fitness is 0.00566.
With C82U A111C A120C A145C C150U C169G U176C the figure was 0.0118; with C82U A111C A120C A145C C150U C169G U176A, 0.0188; with C82U A111C A120C A145C C150A C169G U176C, 0.0151.
Under C82U A111C A120C A145C C150A C169G U176G stands 0.00588; under C82U A111C A120C A145C C150A C169G U176A, 0.0253.
Under C82G A145C C150A C169U stands 0.00875; under C82G A145C C150A C169G, 0.00807; under C82G A145C C150A C169A, 0.00782.
Consider C82U A111C A120C A145C C150G C169G U176G, for which the reverse-splicing fitness stood at 0.00552.
With C82U A111C A120C A145C C150G C169G U176C the figure was 0.00799.
With C82U A111C A120C A145C C150G C169G U176A the figure was 0.00861; with C82G A145U C150U C169A U176C, 0.00851; with C82G A145U C150U C169A U176A, 0.0114.
With C82G A145U C150U C169A U176G the figure was 0.00466.
As to C82G C150A C169U, the reverse-splicing fitness worked out at 0.0101.
With C82G C150A C169G the figure was 0.00937; with C82G C150A C169A, 0.00956.
With C82G A145U C150G C169G U176C the figure was 0.00645; with C82G A145U C150G C169G U176A, 0.00882.
On to C82G A145U C150G C169G U176G, for which the reverse-splicing fitness was 0.00508.
With C82G A145U C150G C169A U176A the figure was 0.0121; with C82G A145U C150G C169A U176C, 0.0105; with C82G A145U C150G C169A U176G, 0.00553.
Under C82G A145G C169G stands 0.0112; under C82G A145G C169U, 0.0164; under C82G A145G C169A, 0.00951.
Under C82G A145G C150U C169G stands 0.012; under C82G A145G C150U C169A, 0.0118; under C82G A145G C150U C169U, 0.0159.
As to C82G A145U C150G C169A, the reverse-splicing fitness amounted to 0.00874.
